# Source: the supplement of paper PMC12636428
# Test system: Saccharomyces cerevisiae
# Test: transcriptional activation domain activity (GFP:mCherry ratio, weighted mean of sorted bins, harmonized to initial dataset scale) (arbitrary fluorescence ratio units); higher = stronger transcriptional activation
# Conditions: beta-estradiol 1 µM; induction time 4 h
# Procedure, shortened: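 Barcoded tiles were sequenced after cells were sorted into 8 bins by GFP:mCherry ratio. Before sorting, cultures had been diluted 1:5 into SC with 1 uM beta-estradiol and held for 4 hours at 30 °C. The tiles were fused to an estradiol-inducible synthetic transcription factor and integrated at URA3 in yeast diploids carrying a GFP reporter. Activation activity is the read-weighted mean of bin median fluorescence, averaged over barcodes and linearly mapped onto the initial dataset scale, and tiles under 50 reads were left out.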
row,Sequence,transcriptional activation domain activity
1,LCDNVTTQWREWMFPHNETLPALGQDGINEDNLNETIDNMLIFDFLDDGSENN,109000
2,VVCHFVIMMASMSYKIVICVIIGVHADLMVMDARWRSLGSWLYLLCGVIVAPA,67300
3,HDLLVDSLRLVMELLKAPGGLSVHALTAHLNILSFTVRLLDLCLDMALETPHH,84900
4,LGLSIWTPWKDVYTRLPKRIYAKLLATAEMEVKYKPKVLVSQIWNAVIISMYR,61600
5,EFYLQIPFRVCMGNGRRRDRVLRDMRRAKRYSDAIEAMKRIVWPIVSFRLLLP,63600
6,EAPREIKAKPEKKKAKPAEAAAPKKESKGKKVKADKKAGADKKADPAAAPAAG,15300
7,DDETADGERQSKREKADDDDDGEEMEIDEEEESAANRNTAVVPPAVQKPSARL,19200
8,LLYHYPMCSVCVLCCVLFFSHLFSIFHVLSVLCCTFFWQCLSFFHYLIPLFLY,62300
9,VFFFLVIALYPFFSSLFTRHGFYTFSPFNCQLSWLFFQWGHSILLFLLRLVSY,46600
10,GNATAGAGAGQAGEAKGKGKAKAKAKGKEKKGKGKAKGKANGKNNQGAAAGGA,46300
11,EETVTAEPAAVEEKDGGDDAMAIDTEEPKKKSKKDKKDKKRKAAAETTTATGT,40600
12,CPVHTTLHVPHFLIWSSHILFFFLVFFFVFSLFPFPLVCLVAFFLVLSALPPS,42700
13,PEKCGDLVVIRGGRLHFRSSAVRLHLLQQMGKTLLLLKDAHLQLTLRTLLYAR,46500
14,RGDGAEDSNRKRRRRSRSPRRSPPDRARERSTTADDAKGTRHRDRSSHRHKDK,32600
15,DVKKVYFASRFPGNWLRDYSQAMDIAGLSKLSSDTLVLVVAVLGFMTFGFATE,38900
16,EYAEWLLQPEQNNGTWVADVLWPAIDLDLEWIALNWNQSSWDLWWPPVWAGSF,107000
17,PAVRVLPCNHGPGGDLCIICRTPLFQLTLFKYLMTKMCHVRTWLMFGILDLTF,47700
18,RFLICDYLLIIAGLFNIVATSLTQVVVNLGLGRHIMDPSVFPNILQYSYYLWI,25000
19,YFILFPFHHFLSPSLHSAPAFWCTLLLFTYVLVFFFGTLYHMVMFCFVCLFIC,94500
20,MHYRYIAGFFFVHTFSCGQGLKDSNLILQCVPLYPQLHPFFLIFLHFFVFLSL,70600
21,QTTDLVQWLAMPCNLPWVVYVLDRVRNLLRFVIVLSEVEITEDLKRRIMAIYT,77400
22,MSKRLSFFFSGYLVLCGFSGVAFLFYFSLFNLVYYYPFLLLFNGFGGICIFLV,56800
23,VFRLYFYLLYFIFYRNLFARLRNWEQYTLIQVASSVWVIIFYPLRMTRTTHGL,65900
24,NPLIIYSSQYSVWTMSFSLFFCVFWFLMAGCNFVRPSALHRVYSLIWMFILGW,51800
25,TSRAPPSASPPTASHGAPTPPPPSPSSSPAPATPSSHPCPPTSSSSRPPSSPP,41800
26,MCILSLFTAWAGLTLFTCIFSFFLLCIVNALLGQNGVGGLLTARRFNTILRVC,54400
27,IFVLDIIQVRCNYFFFLSFLFIWMRSMFFLCSNRLVALFLFYFSGSTLRVTIM,51300
28,KATEYCLYFFGLGPALFKSLLPDKYWQHYCMLVHAVRILVQRRITQTQMLEAY,49300

row,Sequence,transcriptional activation domain activity
1,MYNNIHIPFFVLFLFFFFLSLFFFFFSLIFFFSFYCILTLCWYAFCLFFLKKN,34700
2,MGFLFLLCVLVVWVFFRAWFFRFLFSLVFLFWYFFIYFLWPWYGGVGRGLHSC,36100
3,AGRWQYATLFFSGVSGGATLALSLCVITHPSLLTRIVVICIFVTLISAFTILP,27900
4,LHRLHLARVTVDKEGKLVSTTNMTILNLWLVWRGPMREDRLTIEITLFQAFVG,26400
5,ESDEPEQQRAKSQSRRRQSRGRGRKGGSESEAERSDVSASGGGRRNRQRQKKQ,9900
6,RVVSAFGWKADKHLGFALLKLCLEDRRIRSPMASLMLLAYYTVLTSLCPQVLA,60900
7,MLVLILTLYYFSNYLKSTHQLLSMNLLSSDDLCGILVRDNIIFSILFTFPKIL,63200
8,TTTLTGRPPSTFSGPETSNGPPTGSLPSKFVHDLMSNSPNVSSISMFPDWSMG,21600
9,WATVYLWTCHYQLLVYICTLIIIETRGFLKLGYVFLITLLLLSCIPHILLHVI,30300
10,AESQSSRATHTRKRAKQACRQCNARRVRCNVAESQPCANCRSSGSACELLPSK,26200
11,MSQSFLFCPFQCLSLYLFPFCLCFCFPTLAFLSRFSYFILVLFSFLPLLAFVA,18500
12,FFCCSSLKRDMRFRSYLWAVWVGVVTGVKTSINLVSYRGLPPNNIIIKNLFFA,67700
13,RGRRKWNWTVVLYFACRVTTLAAAVTQMTGFNFTSEISCKTWLILTRIFTNTS,48200
14,CVCVGVGIGVGGLVLPLLFFLSFTSFSSLVTFLFSLSFPFSFFLFFLSFFLGL,46000
15,MLCLTYLVFLRVYGHLLWVELGLFFFSFSKSNYHVIRHGLPFFCYNGAWMEFL,56900
16,DNMDSDFLSRTPNYNAFSLEATSHNPADNANELGSQSNRETNSPSVFYPQANT,22500
17,FQPAVATPTVSIGLIYLIIMAFFSFSFFLPIHMKYIQPQGHPPLHFWQLIIWR,68900
18,GAAATPAKPLGFGATSTATTGGLFGNTGAAPAAGGGLFGATATSHQLLVLVAV,85800
19,INSTIHNLCELAILPDLCGICCFSMRFFVYLDLIGTLILPSTVVYLVWLIIQV,82700
20,MAIQAFFVICIIKILLYFLFFFFLFLSLLLYTYMYIHICAYVFYKIEKHVKSM,51000
21,MCLLCHATLFSSCPYFSIFLVFSFFSFFSLFFFTSFLSLLLFMSLLPTYYHLY,43500
22,NITKVAERGERLDSLQDKTDNLAVSAQGFRRGANRVRKVSSVVPFIQHSAHKL,22000
23,CKWLGFILLFVPVILSFLFPFLFYSFFSSFVFFFFFFFFVMAVFLFLQSPRSF,23300
24,MFMSTLLLVFIHYGWAFFLGCCLWCFVISLCFWYVKLWLLVGCYILVLCDVAR,37400
25,RAMYAPGFVELTLSYGTGGVTLYARYRSMIDALLKRPHATAFIFAGGYLSWLA,52600
26,GIESAGLEVITAQQLEQYAKDQKVLSNCMERNGITAVLCVGLRYIACLIMIIY,66200
27,DSKDKREKFRSRMVVLKSRLLFGVCDPYGVLEEGEVYVRVSVPRMGASTLKNT,67500
